Substrate in series [1]: OC[C@H]1OC(O)[C@H](O)[C@@H](O)[C@@H]1O
As to the kind of experiment: spectrophotometric kinase assay, recombinant enzyme. The class given is biochemical, Homo sapiens. Conditions: ATP-Mg2+.

Substrate in series [2]: OC[C@H]1OC(O)[C@H](O)[C@@H](O)[C@@H]1O
As to the kind of experiment: radiochemical kinase assay, recombinant enzyme. Format: biochemical, Homo sapiens. The settings on record: ADP-Mg2+.

B1: hexokinase 2 (∆28-hHK2) (Homo sapiens) (protein)
chain: MRLSDETLLEISKRFRKEMEKGLGATTHPTAAVKMLPTFVRSTPDGTEHGEFLALDLGGTNFRVLWVKVTDNGLQKVEMENQIYAIPEDIMRGSGTQLFDHIAECLANFMDKLQIKDKKLPLGFTFSFPCHQTKLDESFLVSWTKGFKSSGVEGRDVVALIRKAIQRRGDFDIDIVAVVNDTVGTMMTCGYDDHNCEIGLIVGTGSNACYMEEMRHIDMVEGDEGRMCINMEWGAFGDDGSLNDIRTEFDQEIDMGSLNPGKQLFEKMISGMYMGELVRLILVKMAKEELLFGGKLSPELLNTGRFETKDISDIEGEKDGIRKAREVLMRLGLDPTQEDCVATHRICQIVSTRSASLCAATLAAVLQRIKENKGEERLRSTIGVDGSVYKKHPHFAKRLHKTVRRLVPGCDVRFLRSEDGSGKGAAMVTAVAYRLADQHRARQKTLEHLQLSHDQLLEVKRRMKVEMERGLSKETHASAPVKMLPTYVCATPDGTEKGDFLALDLGGTNFRVLLVRVRNGKWGGVEMHNKIYAIPQEVMHGTGDELFDHIVQCIADFLEYMGMKGVSLPLGFTFSFPCQQNSLDESILLKWTKGFKASGCEGEDVVTLLKEAIHRREEFDLDVVAVVNDTVGTMMTCGFEDPHCEVGLIVGTGSNACYMEEMRNVELVEGEEGRMCVNMEWGAFGDNGCLDDFRTEFDVAVDELSLNPGKQRFEKMISGMYLGEIVRNILIDFTKRGLLFRGRISERLKTRGIFETKFLSQIESDCLALLQVRAILQHLGLESTCDDSIIVKEVCTVVARRAAQLCGAGMAAVVDRIRENRGLDALKVTVGVDGTLYKLHPHFAKVMHETVKDLAPKCDVSFLQSEDGSGKGAALITAVACRIREAGQR
For B1, in series [1], the Vmax came to 35.4 µmol/min/mg.

B2: ADP-glucokinase (∆50-hADPG) (Homo sapiens) (protein)
chain: VSPEGRLAAAWDALIVRPVRRWRRVAVGVNACVDVVLSGVKLLQALGLSPGNGKDHSILHSRNDLEEAFIHFMGKGAAAERFFSDKETFHDIAQVASEFPGAQHYVGGNAALIGQKFAANSDLKVLLCGPVGPKLHELLDDNVFVPPESLQEVDEFHLILEYQAGEEWGQLKAPHANRFIFSHDLSNGAMNMLEVFVSSLEEFQPDLVVLSGLHMMEGQSKELQRKRLLEVVTSISDIPTGIPVHLELASMTNRELMSSIVHQQVFPAVTSLGLNEQELLFLTQSASGPHSSLSSWNGVPDVGMVSDILFWILKEHGRSKSRASDLTRIHFHTLVYHILATVDGHWANQLAAVAAGARVAGTQACATETIDTSRVSLRAPQEFMTSHSEAGSRIVLNPNKPVVEWHREGISFHFTPVLVCKDPIRTVGLGDAISAEGLFYSEVHPHY
Regarding B2, the Km in series [2] is 12.3 ± 1.3 µM.

B3: hexokinase 3 (hHK3) (Homo sapiens) (protein)
chain: MDSIGSSGLRQGEETLSCSEEGLPGPSDSSELVQECLQQFKVTRAQLQQIQASLLGSMEQALRGQASPAPAVRMLPTYVGSTPHGTEQGDFVVLELGATGASLRVLWVTLTGIEGHRVEPRSQEFVIPQEVMLGAGQQLFDFAAHCLSEFLDAQPVNKQGLQLGFSFSFPCHQTGLDRSTLISWTKGFRCSGVEGQDVVQLLRDAIRRQGAYNIDVVAVVNDTVGTMMGCEPGVRPCEVGLVVDTGTNACYMEEARHVAVLDEDRGRVCVSVEWGSFSDDGALGPVLTTFDHTLDHESLNPGAQRFEKMIGGLYLGELVRLVLAHLARCGVLFGGCTSPALLSQGSILLEHVAEMEDPSTGAARVHAILQDLGLSPGASDVELVQHVCAAVCTRAAQLCAAALAAVLSCLQHSREQQTLQVAVATGGRVCERHPRFCSVLQGTVMLLAPECDVSLIPSVDGGGRGVAMVTAVAARLAAHRRLLEETLAPFRLNHDQLAAVQAQMRKAMAKGLRGEASSLRMLPTFVRATPDGSERGDFLALDLGGTNFRVLLVRVTTGVQITSEIYSIPETVAQGSGQQLFDHIVDCIVDFQQKQGLSGQSLPLGFTFSFPCRQLGLDQGILLNWTKGFKASDCEGQDVVSLLREAITRRQAVELNVVAIVNDTVGTMMSCGYEDPRCEIGLIVGTGTNACYMEELRNVAGVPGDSGRMCINMEWGAFGDDGSLAMLSTRFDASVDQASINPGKQRFEKMISGMYLGEIVRHILLHLTSLGVLFRGQQIQRLQTRDIFKTKFLSEIESDSLALRQVRAILEDLGLPLTSDDALMVLEVCQAVSQRAAQLCGAGVAAVVEKIRENRGLEELAVSVGVDGTLYKLHPRFSSLVAATVRELAPRCVVTFLQSEDGSGKGAALVTAVACRLAQLTRV
For B3, the Km in series [1] was determined as 12.2 ± 1 µM.

(Values after publication PMC6347702.)
